Here are results for 43 molecules from patent US20220040297A1 (Chugai, published 2022).

Positions count from the first letter of the chain named. Names may count otherwise.

B1: CE115HA000 A56Y (antibody, name in Kabat numbering, V domains shown)
VH: QVQLVESGGGVVQPGRSLRLSCAASGFTFSNAWMHWVRQAPGKGLEWVAQIKAKSNNYYTYYAESVKGRFTISRDDSKNSLYLQMNSLKTEDTAVYYCRYVHYGAYYGVDAWGQGTTVTVSS
VL: DIVMTQSPLSLPVTPGEPASISCRSSQSLVHSNRNTYLHWYQQKPGQAPRLLIYKVSNRFSGVPDRFSGSGSGTDFTLKISRVEAEDVGVYYCGQGTQVPYTFGQGTKLEIK
B2: CE115HA000 E61A (antibody, name in Kabat numbering, V domains shown)
VH: B1 VH with Y59A, E64A
VL: B1 VL
B3: CE115HA000 D73G (antibody, name in Kabat numbering, V domains shown)
VH: B1 VH with Y59A, D76G
VL: B1 VL
B4: CE115HA000 D72V (antibody, name in Kabat numbering, V domains shown)
VH: B1 VH with Y59A, D75V
VL: B1 VL
B5: CE115HA000 G98T (antibody, name in Kabat numbering, V domains shown)
VH: B1 VH with Y59A, G104T
VL: B1 VL
B6: CE115HA000 G98Y (antibody, name in Kabat numbering, V domains shown)
VH: B1 VH with Y59A, G104Y
VL: B1 VL
B7: CE115HA000 A99H (antibody, name in Kabat numbering, V domains shown)
VH: B1 VH with Y59A, A105H
VL: B1 VL
B8: CE115HA000 E61P (antibody, name in Kabat numbering, V domains shown)
VH: B1 VH with Y59A, E64P
VL: B1 VL
B9: CE115HA000 D101P (antibody, name in Kabat numbering, V domains shown)
VH: B1 VH with Y59A, D110P
VL: B1 VL
B10: CE115HA000 D101T (antibody, name in Kabat numbering, V domains shown)
VH: B1 VH with Y59A, D110T
VL: B1 VL
B11: CE115HA000 A99I (antibody, name in Kabat numbering, V domains shown)
VH: B1 VH with Y59A, A105I
VL: B1 VL
B12: CE115HA000 G98D (antibody, name in Kabat numbering, V domains shown)
VH: B1 VH with Y59A, G104D
VL: B1 VL
B13: CE115HA000 G65E (antibody, name in Kabat numbering, V domains shown)
VH: B1 VH with Y59A, G68E
VL: B1 VL
B14: CE115HA000 D101G (antibody, name in Kabat numbering, V domains shown)
VH: B1 VH with Y59A, D110G
VL: B1 VL
B15: CE115HA000 D101A (antibody, name in Kabat numbering, V domains shown)
VH: B1 VH with Y59A, D110A
VL: B1 VL
B16: CE115HA000 A99T (antibody, name in Kabat numbering, V domains shown)
VH: B1 VH with Y59A, A105T
VL: B1 VL
B17: CE115HA000 G98A (antibody, name in Kabat numbering, V domains shown)
VH: B1 VH with Y59A, G104A
VL: B1 VL
B18: CE115HA000 D73E (antibody, name in Kabat numbering, V domains shown)
VH: B1 VH with Y59A, D76E
VL: B1 VL
B19: CE115HA000 G98Q (antibody, name in Kabat numbering, V domains shown)
VH: B1 VH with Y59A, G104Q
VL: B1 VL
B20: CE115HA000 G98H (antibody, name in Kabat numbering, V domains shown)
VH: B1 VH with Y59A, G104H
VL: B1 VL
B21: CE115HA000 D101I (antibody, name in Kabat numbering, V domains shown)
VH: B1 VH with Y59A, D110I
VL: B1 VL
B22: CE115HA000 D101M (antibody, name in Kabat numbering, V domains shown)
VH: B1 VH with Y59A, D110M
VL: B1 VL
B23: CE115HA000 D101V (antibody, name in Kabat numbering, V domains shown)
VH: B1 VH with Y59A, D110V
VL: B1 VL
B24: CE115HA000 D72E (antibody, name in Kabat numbering, V domains shown)
VH: B1 VH with Y59A, D75E
VL: B1 VL
B25: CE115HA000 D101Y (antibody, name in Kabat numbering, V domains shown)
VH: B1 VH with Y59A, D110Y
VL: B1 VL
B26: CE115HA000 A60E (antibody, name in Kabat numbering, V domains shown)
VH: B1 VH with Y59A, A63E
VL: B1 VL
B27: CE115HA000 A99F (antibody, name in Kabat numbering, V domains shown)
VH: B1 VH with Y59A, A105F
VL: B1 VL
B28: CE115HA000 A102Y (antibody, name in Kabat numbering, V domains shown)
VH: B1 VH with Y59A, A111Y
VL: B1 VL
B29: CE115HA000 D73R (antibody, name in Kabat numbering, V domains shown)
VH: B1 VH with Y59A, D76R
VL: B1 VL
B30: CE115HA000 E61Q (antibody, name in Kabat numbering, V domains shown)
VH: B1 VH with Y59A, E64Q
VL: B1 VL
B31: CE115HA000 G65D (antibody, name in Kabat numbering, V domains shown)
VH: B1 VH with Y59A, G68D
VL: B1 VL
B32: CE115HA000 G100bE (antibody, name in Kabat numbering, V domains shown)
VH: B1 VH with Y59A, G108E
VL: B1 VL
B33: CE115HA000 E61D (antibody, name in Kabat numbering, V domains shown)
VH: B1 VH with Y59A, E64D
VL: B1 VL
B34: CE115HA000 A99S (antibody, name in Kabat numbering, V domains shown)
VH: B1 VH with Y59A, A105S
VL: B1 VL
B35: CE115HA000 A102V (antibody, name in Kabat numbering, V domains shown)
VH: B1 VH with Y59A, A111V
VL: B1 VL
B36: CE115HA000 D101Q (antibody, name in Kabat numbering, V domains shown)
VH: B1 VH with Y59A, D110Q
VL: B1 VL
B37: CE115HA000 G100bF (antibody, name in Kabat numbering, V domains shown)
VH: B1 VH with Y59A, G108F
VL: B1 VL
B38: CE115HA000 G100bI (antibody, name in Kabat numbering, V domains shown)
VH: B1 VH with Y59A, G108I
VL: B1 VL
B39: CE115HA000 D73T (antibody, name in Kabat numbering, V domains shown)
VH: B1 VH with Y59A, D76T
VL: B1 VL
B40: CE115HA000 G98P (antibody, name in Kabat numbering, V domains shown)
VH: B1 VH with Y59A, G104P
VL: B1 VL
B41: CE115HA000 A99D (antibody, name in Kabat numbering, V domains shown)
VH: B1 VH with Y59A, A105D
VL: B1 VL
B42: CE115HA000 A60D (antibody, name in Kabat numbering, V domains shown)
VH: B1 VH with Y59A, A63D
VL: B1 VL
B43: CE115HA000 G98F (antibody, name in Kabat numbering, V domains shown)
VH: B1 VH with Y59A, G104F
VL: B1 VL

In the test the target is T1, CD3ε homodimer protein (human, UniProt P07766 23-126, limits assumed, sulfo-tag or biotin label in some ECL assays).
T1 construct: also called human CD3ε homodimer protein; CD3 (CD3ε)
T1 sequence (P07766 23-126 limits assumed): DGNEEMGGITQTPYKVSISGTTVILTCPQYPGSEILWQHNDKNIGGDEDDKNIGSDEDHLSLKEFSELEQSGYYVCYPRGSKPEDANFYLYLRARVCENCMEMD
In words: SPR, CD3ε homodimer on chip.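 Also: biacore SPR with antibody variants flowed as analyte over amine-coupled CD3ε homodimer on a CM chip, bound amount of each single-residue H chain variant over that of parent.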 Background: SPR reads the build-up and loss of mass on a sensor chip optically.
B1: the “ratio of amounts bound vs CE115HA000” value was 0.66. Turning to B2, the “ratio of amounts bound vs CE115HA000” value was found to be 1.09.

For the molecule B3, the “ratio of amounts bound vs CE115HA000” value worked out at 0.43. On to B4, for which the “ratio of amounts bound vs CE115HA000” value was 1.43. Consider B5, for which the “ratio of amounts bound vs CE115HA000” value worked out at 1. Turning to B6, the “ratio of amounts bound vs CE115HA000” value worked out at 2.22. For B7, the “ratio of amounts bound vs CE115HA000” value was found to be 1.48. On to B8, for which the “ratio of amounts bound vs CE115HA000” value was 1.07. For B9, the “ratio of amounts bound vs CE115HA000” value is 0.2.

With B10, the “ratio of amounts bound vs CE115HA000” value worked out at 0.79.

As for B11, the “ratio of amounts bound vs CE115HA000” value stood at 1.13. With B12 the figure was 0.26. Turning to B13, the “ratio of amounts bound vs CE115HA000” value was 0.78. Regarding B14, the “ratio of amounts bound vs CE115HA000” value turned out to be 1.38. B15: the “ratio of amounts bound vs CE115HA000” value was 1.26. As to B16, the “ratio of amounts bound vs CE115HA000” value was found to be 0.84. Turning to B17, the “ratio of amounts bound vs CE115HA000” value worked out at 1.1. As for B18, the “ratio of amounts bound vs CE115HA000” value was determined as 0.73. On to B19, for which the “ratio of amounts bound vs CE115HA000” value was found to be 1.23. Take B20: the “ratio of amounts bound vs CE115HA000” value is 2.83. For B21, the “ratio of amounts bound vs CE115HA000” value turned out to be 1.18.

B22: the “ratio of amounts bound vs CE115HA000” value came to 1.2.

B23: the “ratio of amounts bound vs CE115HA000” value amounted to 1.33. In the case of B24, the “ratio of amounts bound vs CE115HA000” value was determined as 1.05. Consider B25, for which the “ratio of amounts bound vs CE115HA000” value turned out to be 6.49. As to B26, the “ratio of amounts bound vs CE115HA000” value is 0.94.

In the case of B27, the “ratio of amounts bound vs CE115HA000” value worked out at 1.43. For B28, the “ratio of amounts bound vs CE115HA000” value is 0.91.

As to B29, the “ratio of amounts bound vs CE115HA000” value is 1.04.

For the molecule B30, the “ratio of amounts bound vs CE115HA000” value turned out to be 1.07. On to B31, for which the “ratio of amounts bound vs CE115HA000” value was 0.76. Regarding B32, the “ratio of amounts bound vs CE115HA000” value came to 0.36.

Turning to B33, the “ratio of amounts bound vs CE115HA000” value was 0.91. For the molecule B34, the “ratio of amounts bound vs CE115HA000” value stood at 0.82. As for B35, the “ratio of amounts bound vs CE115HA000” value amounted to 1.43.

With B36, the “ratio of amounts bound vs CE115HA000” value was 2.25. For the molecule B37, the “ratio of amounts bound vs CE115HA000” value was 0.3. For the molecule B38, the “ratio of amounts bound vs CE115HA000” value stood at 0.37. For the molecule B39, the “ratio of amounts bound vs CE115HA000” value was 0.63. In the case of B40, the “ratio of amounts bound vs CE115HA000” value amounted to 1.03. In the case of B41 it was 0.28; in that of B42, 0.99. B43: the “ratio of amounts bound vs CE115HA000” value came to 1.58.
